# Reference: patent US20120178693A1
# Biological target: CMK-inhibited FVII (human Factor VII treated with a 'Phe-Pro-Arg' peptide based chloromethylketone inhibitor) (UniProt P08709)
# UniProt P08709, sequence (P08709 61-466): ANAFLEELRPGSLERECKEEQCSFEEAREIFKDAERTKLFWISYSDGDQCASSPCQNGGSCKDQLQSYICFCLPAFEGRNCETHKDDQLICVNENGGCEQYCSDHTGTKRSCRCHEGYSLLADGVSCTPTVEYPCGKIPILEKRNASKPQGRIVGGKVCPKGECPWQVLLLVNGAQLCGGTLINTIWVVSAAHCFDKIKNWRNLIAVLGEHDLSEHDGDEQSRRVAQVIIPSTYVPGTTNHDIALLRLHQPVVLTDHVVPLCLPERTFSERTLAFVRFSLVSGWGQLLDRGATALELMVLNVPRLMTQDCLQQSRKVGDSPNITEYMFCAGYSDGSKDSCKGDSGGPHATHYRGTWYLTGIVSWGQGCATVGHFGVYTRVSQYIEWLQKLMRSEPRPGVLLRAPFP
substance,measurement,value
thrombin,activation of FVII by thrombin (rate of hydrolysis of the chromogenic substrate Chromozym-tPA),a low activation of FVII by thrombin was measured
